This note sets out measurements from patent publication US20050265970A1 (UNIVERSITY OF CHICAGO, published 2005).

B1: Gadd45β in cells (untagged full-length: endogenous in 3DO cells and MEFs, or stably expressed in 3DO-IκBαM-Gadd45β clones) (other, UniProt P22339 1-160, looked up)
chain: MTLEELVASDNAVQKMQAVTAAVEQLLVAAQRQDRLTVGVYEAAKLMNVDPDSVVLCLLAIDEEEEDDIALQIHFTLIQSFCCDNDIDIVRVSGMQRLAQLLGEPAETLGTTEARDLHCLLVTNCHTDSWKSQGLVEVASYCEESRGNNQWVPYISLEER
notes: also called endogenous Gadd45β
B2: FL-JNKK2, JNKK2 (1-401; FL), 35S-labeled in vitro translated full-length human JNKK2/MKK7 (enzyme)
chain: MAASSLEQKLSRLEAKLKQENREARRRIDLNLDISPQRPRPTLQLPLANDGGSRSPSSESSPQHPTPPARPRHMLGLPSTLFTPRSMESIEIDHKLQEIMKQTGYLTIGGQRYQAEINDLENLGEMGSGTCGPVWKMRFRKTGHVIAVKQMRRSGNKEENKRILMDLDVVLKSHDCPYIVQCFGTFITNTDVFIAMELMGTCAEKLKKRMQGPIPERILGKMTVAIVKALYYLKEKHGVIHRDVKPSNILLDERGQIKLCDFGISGRLVDSKAKTRSAGCAAYMAPERIDPPDPTKPDYDIRADVWSLGISLVELATGQFPYKNCKTDFEVLTKVLQEEPPLLPGHMGFSGDFQSFVKDCLTKDHRKRPKYNKLLEHSFIKRYETLEVDVASWFKDVMAKT
modifications: 35S-methionine label
notes: Reticulocyte lysate translation from pBS-JNKK2; also called full-length MKK7; SacII (FL)
B3: GST-MKK7 (GST-JNKK2; human JNKK2 in pGEX-2T) (enzyme)
chain: B2 chain
notes: On glutathione beads in pull-downs; also called recombinant JNKK2; not shown: glutathione S-transferase encoded by the pGEX-2T vector
B4: MKK7 peptide 2 (aa 142-166 of MKK7/JNKK2), in vitro translated, fused to eGFP (peptide)
chain: TGHVIAVKQMRRSGNKEENKRILMD
modifications: also: 35S-methionine label, place not given here, eGFP fusion, side not given here
notes: not shown: enhanced green fluorescent protein (eGFP, Clontech) fusion partner
B5: Gadd45β (114-160), in vitro translated as GFP fusion (other, murine, UniProt P22339 114-160, looked up)
chain: ARDLHCLLVTNCHTDSWKSQGLVEVASYCEESRGNNQWVPYISLEER
modifications: cysteine pairing not given here; also: GFP fusion, letters not given here, 35S-methionine label
notes: The two places differ by one residue at the N-terminal limit; also called Gadd45β(113-160) in the methods; not shown: GFP of pEGFP-N1 (Clontech) with a short oligonucleotide-encoded linker

The target of test [1] is T1, endogenous MEKK1 of 3DO cells (UniProt P53349 2-1493, limits assumed).
T1 sequence (looked up): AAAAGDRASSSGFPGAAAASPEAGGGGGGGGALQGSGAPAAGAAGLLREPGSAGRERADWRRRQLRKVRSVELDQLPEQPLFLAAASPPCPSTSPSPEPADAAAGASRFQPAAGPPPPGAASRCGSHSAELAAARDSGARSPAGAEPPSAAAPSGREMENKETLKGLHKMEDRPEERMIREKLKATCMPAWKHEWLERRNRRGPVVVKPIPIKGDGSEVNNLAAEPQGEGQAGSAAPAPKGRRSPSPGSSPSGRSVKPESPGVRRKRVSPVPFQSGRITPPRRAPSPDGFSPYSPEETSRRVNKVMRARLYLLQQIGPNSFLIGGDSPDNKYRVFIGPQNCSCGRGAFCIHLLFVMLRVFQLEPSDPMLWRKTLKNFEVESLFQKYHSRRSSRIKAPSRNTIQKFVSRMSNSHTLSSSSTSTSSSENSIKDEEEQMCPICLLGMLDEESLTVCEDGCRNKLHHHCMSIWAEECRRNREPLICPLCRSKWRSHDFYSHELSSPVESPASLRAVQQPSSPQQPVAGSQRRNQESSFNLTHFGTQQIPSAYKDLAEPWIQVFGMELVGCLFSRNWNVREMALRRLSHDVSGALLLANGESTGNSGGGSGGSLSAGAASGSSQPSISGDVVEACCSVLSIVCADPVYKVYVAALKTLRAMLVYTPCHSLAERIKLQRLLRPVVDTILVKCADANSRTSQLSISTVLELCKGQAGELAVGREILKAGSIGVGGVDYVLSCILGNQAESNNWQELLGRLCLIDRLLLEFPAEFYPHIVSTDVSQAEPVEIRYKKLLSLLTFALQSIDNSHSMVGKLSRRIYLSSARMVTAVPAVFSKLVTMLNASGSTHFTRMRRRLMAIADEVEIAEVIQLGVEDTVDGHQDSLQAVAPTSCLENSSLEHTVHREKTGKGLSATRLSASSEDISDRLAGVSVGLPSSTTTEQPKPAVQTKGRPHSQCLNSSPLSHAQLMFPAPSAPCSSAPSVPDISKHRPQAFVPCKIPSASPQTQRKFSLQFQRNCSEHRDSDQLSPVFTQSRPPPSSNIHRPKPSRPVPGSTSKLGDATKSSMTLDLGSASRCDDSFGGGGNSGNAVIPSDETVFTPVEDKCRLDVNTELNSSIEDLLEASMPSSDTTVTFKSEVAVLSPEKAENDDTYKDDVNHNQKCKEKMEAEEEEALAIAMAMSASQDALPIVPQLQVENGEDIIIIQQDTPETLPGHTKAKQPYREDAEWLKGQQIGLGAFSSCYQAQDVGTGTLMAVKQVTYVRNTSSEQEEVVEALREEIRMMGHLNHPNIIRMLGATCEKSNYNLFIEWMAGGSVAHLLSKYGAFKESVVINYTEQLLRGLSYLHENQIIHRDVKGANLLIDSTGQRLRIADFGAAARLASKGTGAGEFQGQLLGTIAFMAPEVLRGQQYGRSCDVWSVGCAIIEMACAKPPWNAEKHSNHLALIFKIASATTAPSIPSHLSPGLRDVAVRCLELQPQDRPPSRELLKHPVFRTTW
Put plainly: co-immunoprecipitation of endogenous proteins from 3DO cells.

The target of test [2] is T2, GST (glutathione-S-transferase, control) (UniProt P08515 1-218 = GST).
T2 construct: Control beads in GST pull-downs
T2 sequence (P08515 whole entry): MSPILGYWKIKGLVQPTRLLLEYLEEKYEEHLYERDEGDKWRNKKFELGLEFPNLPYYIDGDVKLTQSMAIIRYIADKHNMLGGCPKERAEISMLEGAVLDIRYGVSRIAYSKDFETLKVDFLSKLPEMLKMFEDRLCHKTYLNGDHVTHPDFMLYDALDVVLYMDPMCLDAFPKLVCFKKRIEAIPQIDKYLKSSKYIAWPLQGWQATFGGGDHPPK
The experiment in a line: GST pull-down of 35S-labeled in vitro translated protein.
Procedure: Binding assays were performed according to standard procedures, and ³⁵S-labeled proteins that bound to beads, as well as 2 μl of each in vitro translation mix (input), were then resolved by SDS polyacrylamide gel electrophoresis.

Test [3] addresses T3, Gadd45β (1-68) (EcoRV digestion), in vitro translated as GFP fusion (murine, UniProt P22339 1-68, 35S-methionine label).
T3 construct: range 1-68; not shown: GFP of pEGFP-N1 (Clontech) with a short oligonucleotide-encoded linker
T3 sequence (looked up): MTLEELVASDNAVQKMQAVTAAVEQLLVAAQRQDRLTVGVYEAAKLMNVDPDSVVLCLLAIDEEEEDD
The experiment in a line: GST pull-down with GST-JNKK2 beads and 35S-labeled in vitro translated Gadd45β truncations.

Test [4] has as its target T4, GST-Gadd45β (full-length murine Gadd45β directly fused to GST) (murine, UniProt P22339 1-160).
T4 construct: range 1-160; Made in E. coli BL21, on glutathione-sepharose beads in pull-downs; purified protein in kinase assays; not shown: glutathione S-transferase encoded by the pGEX-3X vector
T4 sequence (looked up): B1 chain
Put plainly: GST pull-down of 35S-labeled in vitro translated MKK7 peptides.

Test [5] concerns the target B3. Put plainly: GST pull-down with GST-JNKK2 beads and 35S-labeled in vitro translated Gadd45β truncations.

Ends that are not written are not given here.

As to B1, the binding result in test [1] was “no binding”.
Consider B2, for which the binding result in test [2] is given as “no binding”.
With B3, in test [3], the binding result was “no binding”.
As for B4, the binding result in test [4] was “no binding”.
As to B5, in test [5], the binding result was “no binding”.
